Columns and labels:
[1] = molecular target: transforming growth factor-β1 (TGF-β1) (human) (UniProt P01137); test: equilibrium or kinetic binding, not said which
[2] = molecular target: platelet-derived growth factor-BB (PDGF-BB) (human) (UniProt P01127); test: equilibrium binding
[3] = molecular target: platelet-derived growth factor-BB (PDGF-BB) (human) (UniProt P01127); test: surface plasmon resonance
[4] = molecular target: transforming growth factor-β1 (TGF-β1) (human) (UniProt P01137); test: equilibrium binding; equilibrium binding
Target sequence in this assay (P01137 279-390 limits assumed): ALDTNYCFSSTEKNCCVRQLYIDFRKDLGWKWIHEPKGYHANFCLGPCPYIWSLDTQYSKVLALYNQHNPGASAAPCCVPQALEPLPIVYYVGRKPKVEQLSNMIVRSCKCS

[5] = molecular target: transforming growth factor-β1 (TGF-β1) (human) (UniProt P01137); test: surface plasmon resonance, kinetic; kinetic, plasmon surface resonance
Target sequence in this assay (P01137 279-390 limits assumed): as above

[6] = molecular target: platelet-derived growth factor-BB (PDGF-BB) (human) (UniProt P01127); test: surface plasmon resonance, kinetic
Target sequence in this assay (P01127 82-190 limits assumed): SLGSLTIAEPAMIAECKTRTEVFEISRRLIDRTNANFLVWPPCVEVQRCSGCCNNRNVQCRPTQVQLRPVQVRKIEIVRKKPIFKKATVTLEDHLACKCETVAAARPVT

[7] = molecular target: transforming growth factor-β1 (TGF-β1) (human) (UniProt P01137); test: method not restated in the sentence (paragraph: plasmon resonance modulation)
Target sequence in this assay (P01137 279-390 limits assumed): as the sequence (P01137 279-390 limits assumed) above

[8] = molecular target: platelet-derived growth factor-BB (PDGF-BB) (human) (UniProt P01127); test: as above
Target sequence in this assay (P01127 82-190 limits assumed): as the sequence (P01127 82-190 limits assumed) above

[9] = molecular target: vascular endothelial growth factor A (VEGF-A) (human) (UniProt P15692); test: plasmon resonance modulation; plasmon resonance
Sequence of vascular endothelial growth factor A (VEGF-A) (human) (P15692 other isoform, or with tags, fused parts or gaps limits assumed): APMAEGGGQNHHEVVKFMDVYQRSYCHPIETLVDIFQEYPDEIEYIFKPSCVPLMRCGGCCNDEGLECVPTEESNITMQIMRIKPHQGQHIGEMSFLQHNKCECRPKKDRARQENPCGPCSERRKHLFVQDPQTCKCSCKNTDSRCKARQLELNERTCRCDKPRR

[10] = molecular target: transforming growth factor-β1 (TGF-β1) (human) (UniProt P01137); test: plasmon resonance modulation; plasmon resonance
Target sequence in this assay (P01137 279-390 limits assumed): as the sequence (P01137 279-390 limits assumed) above

[11] = molecular target: platelet-derived growth factor-BB (PDGF-BB) (human) (UniProt P01127); test: plasmon resonance modulation; plasmon resonance
Target sequence in this assay (P01127 82-190 limits assumed): as the sequence (P01127 82-190 limits assumed) above

[12] = molecular target: vascular endothelial growth factor A (VEGF-A) (human) (UniProt P15692); test: method not restated in the sentence
[13] = molecular target: transforming growth factor-β1 (TGF-β1) (human) (UniProt P01137); test: method not restated in the sentence
Target sequence in this assay (P01137 279-390 limits assumed): as the sequence (P01137 279-390 limits assumed) above

[14] = molecular target: platelet-derived growth factor-BB (PDGF-BB) (human) (UniProt P01127); test: method not restated in the sentence
Target sequence in this assay (P01127 82-190 limits assumed): as the sequence (P01127 82-190 limits assumed) above

[15] = molecular target: transforming growth factor-β1 (TGF-β1) (human) (UniProt P01137); test: radiolabeled GF binding to intact FN, non linear regression; radiolabeled GF, intact FN
[16] = molecular target: platelet-derived growth factor-BB (PDGF-BB) (human) (UniProt P01127); test: as above
[17] = molecular target: transforming growth factor-β1 (TGF-β1) (human) (UniProt P01137); test: equilibrium binding to FN adsorbed to a surface or coupled to agarose beads
[18] = molecular target: platelet-derived growth factor-BB (PDGF-BB) (human) (UniProt P01127); test: as above

Sequence of FNIII12-14 (P02751 other isoform, or with tags, fused parts or gaps limits assumed): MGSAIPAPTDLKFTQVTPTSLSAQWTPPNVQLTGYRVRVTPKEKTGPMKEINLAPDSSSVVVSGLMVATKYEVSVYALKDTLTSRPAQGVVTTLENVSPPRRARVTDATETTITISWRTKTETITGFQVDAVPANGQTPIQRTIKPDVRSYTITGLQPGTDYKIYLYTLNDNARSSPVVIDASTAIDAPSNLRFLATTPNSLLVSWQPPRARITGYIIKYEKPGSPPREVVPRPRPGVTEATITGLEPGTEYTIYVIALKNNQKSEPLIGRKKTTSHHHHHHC
Sequence of IIICS, variably-spliced domain of fibronectin (P02751 other isoform, or with tags, fused parts or gaps limits assumed): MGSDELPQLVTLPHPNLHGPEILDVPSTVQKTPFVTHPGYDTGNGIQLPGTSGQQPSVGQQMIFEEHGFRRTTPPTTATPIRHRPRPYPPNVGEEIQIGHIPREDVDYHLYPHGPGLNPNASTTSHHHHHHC
Sequence of FNIII12-V15 (HV), composite heparinII-binding and variably-spliced IIICS domains of fibronectin (P02751 other isoform, or with tags, fused parts or gaps limits assumed): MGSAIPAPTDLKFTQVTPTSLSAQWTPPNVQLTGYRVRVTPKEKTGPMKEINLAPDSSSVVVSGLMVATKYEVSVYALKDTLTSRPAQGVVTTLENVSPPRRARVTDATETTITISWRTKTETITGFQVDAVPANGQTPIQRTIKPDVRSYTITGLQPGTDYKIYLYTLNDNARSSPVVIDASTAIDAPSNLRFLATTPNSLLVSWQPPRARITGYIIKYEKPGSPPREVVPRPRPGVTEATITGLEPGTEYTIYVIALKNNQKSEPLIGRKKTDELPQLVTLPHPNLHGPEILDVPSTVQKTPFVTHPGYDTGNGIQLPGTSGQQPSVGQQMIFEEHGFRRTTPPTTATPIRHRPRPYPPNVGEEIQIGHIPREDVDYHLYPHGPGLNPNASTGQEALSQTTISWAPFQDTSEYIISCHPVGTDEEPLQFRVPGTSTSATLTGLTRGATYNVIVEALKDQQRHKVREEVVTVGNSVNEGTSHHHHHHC
Sequence of FNIII1-7 (P02751 other isoform, or with tags, fused parts or gaps limits assumed): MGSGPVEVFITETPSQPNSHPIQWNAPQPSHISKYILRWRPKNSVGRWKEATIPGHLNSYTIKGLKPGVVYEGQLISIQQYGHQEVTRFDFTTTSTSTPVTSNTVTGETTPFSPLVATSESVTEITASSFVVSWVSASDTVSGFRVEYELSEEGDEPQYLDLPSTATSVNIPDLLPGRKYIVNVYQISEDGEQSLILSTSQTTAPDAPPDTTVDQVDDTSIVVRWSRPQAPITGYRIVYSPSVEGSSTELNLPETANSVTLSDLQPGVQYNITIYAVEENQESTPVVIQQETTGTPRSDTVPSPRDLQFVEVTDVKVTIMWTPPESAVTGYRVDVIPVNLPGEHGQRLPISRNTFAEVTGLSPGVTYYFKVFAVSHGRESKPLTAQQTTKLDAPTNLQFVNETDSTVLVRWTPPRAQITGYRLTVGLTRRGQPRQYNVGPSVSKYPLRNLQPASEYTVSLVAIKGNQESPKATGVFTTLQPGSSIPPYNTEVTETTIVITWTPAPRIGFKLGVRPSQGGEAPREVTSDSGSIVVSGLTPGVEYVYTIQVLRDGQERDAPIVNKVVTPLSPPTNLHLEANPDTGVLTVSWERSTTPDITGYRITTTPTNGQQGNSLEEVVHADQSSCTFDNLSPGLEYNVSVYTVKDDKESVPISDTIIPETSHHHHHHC
Sequence of FNIII12-15 (H), heparinII-binding domain of fibronectin (P02751 other isoform, or with tags, fused parts or gaps limits assumed): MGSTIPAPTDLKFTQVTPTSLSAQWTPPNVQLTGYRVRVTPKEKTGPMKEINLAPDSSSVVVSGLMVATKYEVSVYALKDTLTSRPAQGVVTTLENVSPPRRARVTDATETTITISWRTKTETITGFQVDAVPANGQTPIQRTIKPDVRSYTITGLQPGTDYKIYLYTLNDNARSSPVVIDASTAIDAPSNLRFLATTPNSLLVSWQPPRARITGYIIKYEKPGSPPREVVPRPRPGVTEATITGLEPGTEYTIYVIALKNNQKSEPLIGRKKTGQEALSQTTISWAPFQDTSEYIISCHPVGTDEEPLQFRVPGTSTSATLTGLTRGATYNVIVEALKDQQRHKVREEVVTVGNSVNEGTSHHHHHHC
Sequence of FNIII12-13 (P02751 other isoform, or with tags, fused parts or gaps limits assumed): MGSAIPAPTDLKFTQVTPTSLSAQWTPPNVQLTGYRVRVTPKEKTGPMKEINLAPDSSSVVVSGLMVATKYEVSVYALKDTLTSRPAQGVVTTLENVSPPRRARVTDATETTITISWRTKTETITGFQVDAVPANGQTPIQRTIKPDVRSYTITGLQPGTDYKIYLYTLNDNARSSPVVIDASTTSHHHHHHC

A Kd [1] of 6.2 nM, a Kd [2] of 32 nM and a Kd [3] of 370 nM were found for FNIII1 (from UniProt P02751 610-702) in this work.

A Kd [2] of 37 nM and a Kd [3] of 9.1 nM were found for FNIII1-2 (from UniProt P02751 610-812) in this work.

A Kd [4] of 17 nM, a Kd [2] of 75 nM and a Kd [5] of 18 nM were found for FNIII1-7 (from UniProt P02751 610-1266) in this work. The Kd [6] was 100 nM.

A Kd [2] of 75 nM was found for “FNIII12-13 (from UniProt P02751 1812-1992)” in this work.

A Kd [1] of 7.6 nM, a Kd [2] of 35 nM and a Kd [7] of 7.6 nM were found for “FNIII12-14 (from UniProt P02751 1812-2082)” in this work. The Kd [8] was 55 nM.

A Kd [1] of 16 nM, a Kd [2] of 6.8 nM and a Kd [7] of 16 nM were found for “FNIII12-15 (H), heparinII-binding domain of fibronectin (from UniProt P02751 1631-1987)” in this work. The Kd [8] was 6.8 nM.

A Kd [4] of 97 nM, a Kd [2] of 21 nM and a Kd [9] of 0.6 nM were found for “FNIII12-V15 (HV), composite heparinII-binding and variably-spliced IIICS domains of fibronectin (from UniProt P02751 1812-2288)” in this work. It also gave a Kd [10] of 2.5 nM, a Kd [11] of 17 nM and a Kd [5] of 25 nM. It also gave a Kd [6] of 17 nM.

A Kd [1] of 74 nM, a Kd [2] of 350 nM and a Kd [12] of 100 nM were found for “IIICS, variably-spliced domain of fibronectin (from UniProt P02751 2083-2202)” in this work. For the same substance, the Kd [13] was 100 nM and the Kd [14] was 100 nM.

A Kd [15] of 53 nM, a Kd [16] of 49 nM and a Kd [17] of 53 nM were found for “intact human plasma fibronectin (FN) (from UniProt P02751 32-2477)” in this work. The Kd [18] was 49 nM.

Source: patent US8759300
